From the DeepSol protein solubility set

assay: soluble on expression in E. coli; label from the status in PepcDB or PDB records

Row | Sequence | soluble on expression in E. coli
1 | VTVSTSTARSADDSDHSSEVARPTDSRRDPEVLREALQRWLAAQLPPDAAPEVTHVHLPDANGMSSETILFDATWSGEVHPLVARVAPADTTMPVFPEYDLDGQFQVMAQVREHSAVPVPVVYWSESDPGPLGAPFFVMARVSGQVPPDVMPYNFGSWVTEATEEQRALLQHSAVNVLAQLHDIDRPWERFAFLQLPGSGPTVTEALAAHIRQQRDYYEWTTLSGPRSPLIERGFAWMEDNLPDDPSPAVFCWGDARIGNMMFEDFRPVAVLDWEMATLGPRELDLGWMTYLHRFFEDIAASAGLDGMPDFLRLDDLAALYEELTGHTPRDLEYYTAYAALRQATIMLRIQERAIHFGQAVAPEDPDDMIMHRASLEAMLDGTYWEKIR | not soluble
2 | MGSDKIHHHHHHMADNLALRMRPRNINEVIGQQHLVGNGKIIDRMVAANMLSSMILYGPPGIGKTSIASAIAGTTKYAFRTFNATVDSKKRLQEIAEEAKFSGGLVLLLDEIHRLDKTKQDFLLPLLENGNIIMIGATTENPFFSVTPAIRSRVQIFELEPLSNEDIKKAIQLAISDKERGFPFLVTIDDEALDFIVTATNGDLRSAYNSLDLAVMSTSPNEDGSRHISLETMENSLQCSYITMDKNGDGHYDILSALQKSIRGSDVNASLHYAARLVEAGDLPSLARRLTIIAYEDIGLANPEAQIHTVTALEAAQRIGFPEARILIANIVVDLALSPKSNSAYLAMDAALADLRRSGNLPIPRHLRDGHYSGSKTLGNARDYKYPHAYPEKWVKQQYLPDKLVGHNYFEANETGKYERALGSNKERIDKLSD | not soluble
3 | MGFCNMLLLSNILLTAWLSTAKGEEILCTPPRVENGDGLNVKPVYKENERYHYKCKHGYVPKERGDAICTGSGWSSQPFCEEKTCSPPYILNGIYTPHRIIHRSDDEIRYECNYGFYPVTGSTVSKCTPTGWIPVPRCTLKPCEFPQFKYGRLYYEESLRPNFPVSIGNKYSYRCDNGFSPPSGYSWDYLRCTAQGWEPEVPCVRKCVFHYVENGDSAYWEKIYVQGQSLKVQCYNGYSLQNGQDIMTCTENGWSPPPKCIRIKTCSASDIHIDNGFLSESSYIYALNRETSYRCKQGYVTNTGEISGSITCLQNGWSPQPSCIKSCDMPVFENSITKNTRTWFKLNDKLDYECLVGFENEYKHTKGSITCTYYGWSDTPSCYDSTRTCGPPPPIDNGDITSLSLPEYEPLSSVDYQCQKYYLLKGNKTITCRNGKWSEPPTCLHACVIPENIMEAHNIILKWRHTEKIYAHSGEDIEFECKRGYQKARGSLPFRTKCINGTINYPTCV | soluble
4 | RSEMHEECSPDFTAQFHLAAEHTAHIFQHLPETEPDDFQTALDTLRGELDTLRTHSSGTQSHILLQQLQLIARQLEPYYRAYRQIPHRQPQNAA | not soluble
5 | AAMKVYDVTAPIYEGMPVYKNKPEKQPKRTTITNGYVTESRIDMDVHTGTHIDAPLHMVEGGATFETIPLNDLVGPCKLFDLTHVNDRITKDDIAHLDIQEGDFVLFKTKNSFEDAFHFEFIFVAEDAARYLADKQIRGVGIDALGIERAQEGHPTHKTLFSAGVIIIEGLRLKDVPEGRYFMVAAPLKLVGTDAAPARVLLFDREP | soluble
6 | MKRAFIMVLDSFGIGATEDAERFGDVGADTLGHIAEACAKGEADNGRKGPLNLPNLTRLGLAKAHEGSTGFIPAGMDGNAEVIGAYAWAHEMSSGKDTPSGHWEIAGVPVLFEWGYFSDHENSFPQELLDKLVERANLPGYLGNCHSSGTVILDQLGEEHMKTGKPIFYTSADSVFQIACHEETFGLDKLYELCEIAREELTNGGYNIGRVIARPFIGDKAGNFQRTGNRHDLAVEPPAPTVLQKLVDEKHGQVVSVGKIADIYANCGITKKVKATGLDALFDATIKEMKEAGDNTIVFTNFVDFDSSWGHRRDVAGYAAGLELFDRRLPELMSLLRDDDILILTADHGCDPTWTGTDHTREHIPVLVYGPKVKPGSLGHRETFADIGQTLAKYFGTSDMEYGKAMF | not soluble
7 | MLLAMELLLEYDYYWKLDNIIANVQRNFPSNSLTVLFPKTHLLISPENMGRVAAKLIRLTEKNQQRNGIVTFKLYYQHEEGEEEEEEEVDEDEDEEGEEGEEEEEEEDEVEEVPQKISEIFNLGAHLVGEPPENCWYLEDILTIPKEIIKDAFGDVTVWYGKSFQLRNSIANRRIHFNLFYTKNYLKKFFMERDGCMMETEFLRHFKDIAN | not soluble
8 | MIRMAQNNKELEKLAYEYQVLQAQAQILAQNLELLNLAKAEVQTVRETLENLKKIEEEKPEILVPIGAGSFLKGVIVDKNNAIVSVGSGYAVERSIDEAISFLEKRLKEYDEAIKKTQGALAELEKRIGEVARKAQEVQQKQSMTSFKVKK | soluble
9 | MGSDKIHHHHHHMSNSSIKSKTALLRNGETQKGNGYPEANDYSARILETMQTGVVFFNTEQIISGINNLACEDLQIPRDPSGHKITDIISIIHQEKDIFPELIARLKSSETDMEKLPIDTLIRSLETKVQFFASGCIMQLETGRYLLAFRNTMDEVTHEHLLSMILARTKIFPWFFDLKRNKMLIDAHWFSYLGIPAGDCEITIEKFFSRVHPNERDMLADALQKQLSEKEIPDSFSYRLQRGDGSWEWFSEQSMYLSKTNDGSPYRIVGVCHSIQEHKNTEDKLRAARNKAQESDRLKSAFLANMSHEIRTPLNAIVGFSNLIAGGIVDLDTEEARDYSALISKNCNYLLTLVSDVLDLSCIESDTMTFKFTVYPLTRLLTEIYQKYENRIPQEVQFNLLLPTDNVEIETDAVRLRQVIEHLLDNAAKFTVKGHIDIGYALSDHGEKIYVFVADTGCGIPSDQYKKVFERFYKINSFVQGAGLGLSVCKTIVEGLGGTINVYSQLKEGSRFSVILPLNRLHK | not soluble
10 | MSQGYAIELYFDPALENQVLKAWNVFARRQISTYLINNESRPHITLFSTTSSIDSTKLEPIIKSFSSKQEPISLSFSSIGSFSSDDNALFLSPTPSLSLIQLQLQLCEVIKKEGFEIGEEYRVDSWVPFCSVAVDVPKSRISEGFLVLRDLKLLVYGYAMDIGLVEFSPVREVFSFGLGNNLES | soluble
11 | MIKNILILSSNNTGHGHKSITESLLEQFSHYPDVNVHVIDGFTLAGNFGLRIGKLYGSVTRNAKELWKLVWELSLKKPSLLNDFTEVAIKDNFLKLICNIKPDLILSVHPNFNGSVLNILEDYNIKVPFVTLLADIVSITPLWADPRADYIICPSKESKFKCLEFGVSESKLIETGFPVRQKFLKHLEKNGENNTQNIKKYTGDRPLECLIMSGGEGSGNMSRIASILLKNFNCRVKIVTGRNRLLKRRLERTIGERFGDRVEIYGFTENIQDLMLSSDIAFTRGSPNVMMEAVACNVPLIITGNLPGQEEGNPAYMQKYNLGVVCKDVRKLRHTVNELLENNGEKLNRIKQSQKEFLNPNVAKEIVSFLLSIDKQEEPCFPEDLFSGDFPRFWELHKRISMSHNKKIILKRHKKIGTKQK | soluble
12 | MGSDKIHHHHHHMSEQYKQPNTPEPYWRQSTPLPDFKPLQNDLLVDVVIVGGGITGITTAYLLQKRGKKVVILEADRLFNGTTGHTTAKITAQHGLIYDEFIQHFGEDKAKQYYDAQMEAKTFIKNTVQDLSIDCDFQEHDAYIYTNANRYLAKLEREMRAYEKLQINGSLIDSMPLQVPIKKAIVMKGQAQFHPIAYLMKLVQDFIDRGGLIFEHTVATDVDKGEHRTVLTRDGHKVTCDYVVESSHFPFFDRGFYFSRMYADRSYVLGLKVKEPYPGGMYLSAEDPPRSIRHASYQGEDLWLISGETHKTGQGMDTDYHYEALESFSREMFNVTDISYRWSAQDLVTLDRMPYIGPATSNDPHILVATGFRKWGMTNGTIAAHVITDLIIGQVNAYQKLFAPQRFVADPSLRKFFSYNVDVAKHLIDGKTEKGSRTPESLQKDEGDVVNVNGKRAGGYRDTDGALHLVDTTCTHMGCEVSWNHGDRTWDCPCHGSRFSYDGEVVEGPAKKPLKKIDHT | not soluble
13 | MRLLYVIKKENPMDQMPNCPKCQSEYVYHDSINFVCPDCGNEWDNNEIQESDDDQLIVKDSNGNLLAEGDNVLLIKDLKLKGSSEVLKKGTKFKNIRLVNGDHNVDCGKIMLKSEFLKKALEHHHHHH | soluble
